B1: IgG4 full-length heavy chain with K392L/T394W/F405A/Y407V (SEQ ID NO: 96) with light chain SEQ ID NO: 61 (antibody)
heavy: QVQLQESGPGLVRPSQTLSLTCTVSGYSITSDHAWSWVRQPPGRGLEWIGYISYSGITTYNPSLKSRVTMLRDTSKNQFSLRLSSVTAADTAVYYCARSLARTTAMDYWGQGSLVTVSSASTKGPSVFPLAPCSRSTSESTAALGCLVKDYFPEPVTVSWNSGALTSGVHTFPAVLQSSGLYSLSSVVTVPSSSLGTKTYTCNVDHKPSNTKVDKRVESKYGPPCPPCPAPEFLGGPSVFLFPPKPKDTLMISRTPEVTCVVVDVSQEDPEVQFNWYVDGVEVHNAKTKPREEQFNSTYRVVSVLTVLHQDWLNGKEYKCKVSNKGLPSSIEKTISKAKGQPREPQVYTLPPSQEEMTKNQVSLTCLVKGFYPSDIAVEWESNGQPENNYLTWPPVLDSDGSFALVSRLTVDKSRWQEGNVFSCSVMHEALHNHYTQKSLSLSL
light: not shown
B2: IgG4 full-length heavy chain with K392D/D399K/R409D (SEQ ID NO: 97) with light chain SEQ ID NO: 61 (antibody)
heavy: QVQLQESGPGLVRPSQTLSLTCTVSGYSITSDHAWSWVRQPPGRGLEWIGYISYSGITTYNPSLKSRVTMLRDTSKNQFSLRLSSVTAADTAVYYCARSLARTTAMDYWGQGSLVTVSSASTKGPSVFPLAPCSRSTSESTAALGCLVKDYFPEPVTVSWNSGALTSGVHTFPAVLQSSGLYSLSSVVTVPSSSLGTKTYTCNVDHKPSNTKVDKRVESKYGPPCPPCPAPEFLGGPSVFLFPPKPKDTLMISRTPEVTCVVVDVSQEDPEVQFNWYVDGVEVHNAKTKPREEQFNSTYRVVSVLTVLHQDWLNGKEYKCKVSNKGLPSSIEKTISKAKGQPREPQVYTLPPSQEEMTKNQVSLTCLVKGFYPSDIAVEWESNGQPENNYDTTPPVLKSDGSFFLYSDLTVDKSRWQEGNVFSCSVMHEALHNHYTQKSLSLSL
light: not shown
notes: also called Sample No. 193 full-length heavy chain
B3: IgG1 full-length heavy chain with E345R/K360E/D399M/Y407A/K409V (SEQ ID NO: 58) with light chain SEQ ID NO: 61 (antibody)
heavy: QVQLQESGPGLVRPSQTLSLTCTVSGYSITSDHAWSWVRQPPGRGLEWIGYISYSGITTYNPSLKSRVTMLRDTSKNQFSLRLSSVTAADTAVYYCARSLARTTAMDYWGQGSLVTVSSASTKGPSVFPLAPSSKSTSGGTAALGCLVKDYFPEPVTVSWNSGALTSGVHTFPAVLQSSGLYSLSSVVTVPSSSLGTQTYICNVNHKPSNTKVDKRVEPKSCDKTHTCPPCPAPELLGGPSVFLFPPKPKDTLMISRTPEVTCVVVDVSHEDPEVKFNWYVDGVEVHNAKTKPREEQYNSTYRVVSVLTVLHQDWLNGKEYKCKVSNKALPAPIEKTISKAKGQPRRPQVYTLPPSREEMTENQVSLTCLVKGFYPSDIAVEWESNGQPENNYKTTPPVLMSDGSFFLASVLTVDKSRWQQGNVFSCSVMHEALHNHYTQKSLSLSP
light: not shown
B4: IgG1 full-length heavy chain with K392D/D399K/K409D (SEQ ID NO: 50) with light chain SEQ ID NO: 61 (antibody)
heavy: QVQLQESGPGLVRPSQTLSLTCTVSGYSITSDHAWSWVRQPPGRGLEWIGYISYSGITTYNPSLKSRVTMLRDTSKNQFSLRLSSVTAADTAVYYCARSLARTTAMDYWGQGSLVTVSSASTKGPSVFPLAPSSKSTSGGTAALGCLVKDYFPEPVTVSWNSGALTSGVHTFPAVLQSSGLYSLSSVVTVPSSSLGTQTYICNVNHKPSNTKVDKRVEPKSCDKTHTCPPCPAPELLGGPSVFLFPPKPKDTLMISRTPEVTCVVVDVSHEDPEVKFNWYVDGVEVHNAKTKPREEQYNSTYRVVSVLTVLHQDWLNGKEYKCKVSNKALPAPIEKTISKAKGQPREPQVYTLPPSREEMTKNQVSLTCLVKGFYPSDIAVEWESNGQPENNYDTTPPVLKSDGSFFLYSDLTVDKSRWQQGNVFSCSVMHEALHNHYTQKSLSLSP
light: not shown
B5: IgG1 full-length heavy chain with E345R/Q347R/K360D/T366V/D399M/Y407A/K409V (SEQ ID NO: 55) with light chain SEQ ID NO: 61 (antibody)
heavy: QVQLQESGPGLVRPSQTLSLTCTVSGYSITSDHAWSWVRQPPGRGLEWIGYISYSGITTYNPSLKSRVTMLRDTSKNQFSLRLSSVTAADTAVYYCARSLARTTAMDYWGQGSLVTVSSASTKGPSVFPLAPSSKSTSGGTAALGCLVKDYFPEPVTVSWNSGALTSGVHTFPAVLQSSGLYSLSSVVTVPSSSLGTQTYICNVNHKPSNTKVDKRVEPKSCDKTHTCPPCPAPELLGGPSVFLFPPKPKDTLMISRTPEVTCVVVDVSHEDPEVKFNWYVDGVEVHNAKTKPREEQYNSTYRVVSVLTVLHQDWLNGKEYKCKVSNKALPAPIEKTISKAKGQPRRPRVYTLPPSREEMTDNQVSLVCLVKGFYPSDIAVEWESNGQPENNYKTTPPVLMSDGSFFLASVLTVDKSRWQQGNVFSCSVMHEALHNHYTQKSLSLSP
light: not shown
B6: IgG1 full-length heavy chain with K392L/T394W/F405A/Y407V (SEQ ID NO: 41) with light chain SEQ ID NO: 61 (antibody)
heavy: QVQLQESGPGLVRPSQTLSLTCTVSGYSITSDHAWSWVRQPPGRGLEWIGYISYSGITTYNPSLKSRVTMLRDTSKNQFSLRLSSVTAADTAVYYCARSLARTTAMDYWGQGSLVTVSSASTKGPSVFPLAPSSKSTSGGTAALGCLVKDYFPEPVTVSWNSGALTSGVHTFPAVLQSSGLYSLSSVVTVPSSSLGTQTYICNVNHKPSNTKVDKRVEPKSCDKTHTCPPCPAPELLGGPSVFLFPPKPKDTLMISRTPEVTCVVVDVSHEDPEVKFNWYVDGVEVHNAKTKPREEQYNSTYRVVSVLTVLHQDWLNGKEYKCKVSNKALPAPIEKTISKAKGQPREPQVYTLPPSREEMTKNQVSLTCLVKGFYPSDIAVEWESNGQPENNYLTWPPVLDSDGSFALVSKLTVDKSRWQQGNVFSCSVMHEALHNHYTQKSLSLSP
light: not shown
notes: also called Sample No. 200 full-length heavy chain
B7: IgG1 full-length heavy chain with E356K/K392D/D399K/K409D (SEQ ID NO: 56) with light chain SEQ ID NO: 61 (antibody)
heavy: QVQLQESGPGLVRPSQTLSLTCTVSGYSITSDHAWSWVRQPPGRGLEWIGYISYSGITTYNPSLKSRVTMLRDTSKNQFSLRLSSVTAADTAVYYCARSLARTTAMDYWGQGSLVTVSSASTKGPSVFPLAPSSKSTSGGTAALGCLVKDYFPEPVTVSWNSGALTSGVHTFPAVLQSSGLYSLSSVVTVPSSSLGTQTYICNVNHKPSNTKVDKRVEPKSCDKTHTCPPCPAPELLGGPSVFLFPPKPKDTLMISRTPEVTCVVVDVSHEDPEVKFNWYVDGVEVHNAKTKPREEQYNSTYRVVSVLTVLHQDWLNGKEYKCKVSNKALPAPIEKTISKAKGQPREPQVYTLPPSRKEMTKNQVSLTCLVKGFYPSDIAVEWESNGQPENNYDTTPPVLKSDGSFFLYSDLTVDKSRWQQGNVFSCSVMHEALHNHYTQKSLSLSP
light: not shown
B8: IgG1 full-length heavy chain with E356K/K392D/D399K/K439E (SEQ ID NO: 48) with light chain SEQ ID NO: 61 (antibody)
heavy: QVQLQESGPGLVRPSQTLSLTCTVSGYSITSDHAWSWVRQPPGRGLEWIGYISYSGITTYNPSLKSRVTMLRDTSKNQFSLRLSSVTAADTAVYYCARSLARTTAMDYWGQGSLVTVSSASTKGPSVFPLAPSSKSTSGGTAALGCLVKDYFPEPVTVSWNSGALTSGVHTFPAVLQSSGLYSLSSVVTVPSSSLGTQTYICNVNHKPSNTKVDKRVEPKSCDKTHTCPPCPAPELLGGPSVFLFPPKPKDTLMISRTPEVTCVVVDVSHEDPEVKFNWYVDGVEVHNAKTKPREEQYNSTYRVVSVLTVLHQDWLNGKEYKCKVSNKALPAPIEKTISKAKGQPREPQVYTLPPSRKEMTKNQVSLTCLVKGFYPSDIAVEWESNGQPENNYDTTPPVLKSDGSFFLYSKLTVDKSRWQQGNVFSCSVMHEALHNHYTQESLSLSP
light: not shown
B9: IgG1 full-length heavy chain with E356K/D399K/K409E/K439E (SEQ ID NO: 36) with light chain SEQ ID NO: 61 (antibody)
heavy: QVQLQESGPGLVRPSQTLSLTCTVSGYSITSDHAWSWVRQPPGRGLEWIGYISYSGITTYNPSLKSRVTMLRDTSKNQFSLRLSSVTAADTAVYYCARSLARTTAMDYWGQGSLVTVSSASTKGPSVFPLAPSSKSTSGGTAALGCLVKDYFPEPVTVSWNSGALTSGVHTFPAVLQSSGLYSLSSVVTVPSSSLGTQTYICNVNHKPSNTKVDKRVEPKSCDKTHTCPPCPAPELLGGPSVFLFPPKPKDTLMISRTPEVTCVVVDVSHEDPEVKFNWYVDGVEVHNAKTKPREEQYNSTYRVVSVLTVLHQDWLNGKEYKCKVSNKALPAPIEKTISKAKGQPREPQVYTLPPSRKEMTKNQVSLTCLVKGFYPSDIAVEWESNGQPENNYKTTPPVLKSDGSFFLYSELTVDKSRWQQGNVFSCSVMHEALHNHYTQESLSLSP
light: not shown

Target: the molecule itself
Assay: SEC peak area ratio after coexpression of full-length heavy chain, light chain and Fc fragment

Going from B1 to B2, the “Homo full-length heavy chain (%)” value falls from 66.2% to 64.5%.

Going from B3 to B4, the “Homo full-length heavy chain (%)” value rises from 70.3% to 76.8%.

Going from B5 to B6, the “Homo full-length heavy chain (%)” value rises from 70.7% to 72.7%.

First: B7
Second: B8
The “Homo full-length heavy chain (%)” value of the first is higher: 70.7% for the first, 69.6% for the second.

For B9, the “Homo full-length heavy chain (%)” value was 73.3%.

From US20260217835A1 (published 2026)
